Assay: yeast display, Sf9 membrane polyspecificity reagent, FACS + sequencing; frameworks hold sequencing errors
Summary of the method: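 A synthetic nanobody library was expressed on Saccharomyces cerevisiae BJ5465 by galactose induction for 36–48 hours. The library was stained for 1 hour at 4 °C with 10% biotinylated, detergent-solubilized Sf9 membrane reagent and enriched with streptavidin microbeads before FACS. Low and high (top ~1%) gates were set on anti-HA fluorescence for expression and streptavidin fluorescence for reagent binding, and each polyreactivity label reflects the gate of origin.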

Row | Sequence | polyreactivity (PSR sort gate)
1 | QVQLVESGGGLVQAGGSLRLSCAASGRICWYYGLGWYRQAPGKERELVAAITTGGSTYADSVKGRFTISRDNAKNTVYLQMNSLKPEDPAVYYCAADGSYVWRNGWTYFYWGQGTQVTVSS | high polyreactivity
2 | QVQLVESGGGLVQAGGSLRLSCAASGRTFHGNAKGWYRTAPGKERELVAAISYSGGRTYYADSVKARFTISRDNAKNTVYLQMNSLKPEDTAVYYCAAWGSSYSFDYWGQGTQVTVSS | high polyreactivity
3 | QVQLVESGGGLVQAGGSLRLSCAASGSTFRWYAMGWYRQAPGKERELVAAIRRIGSRTYADSVKGRFTISRDNAKNTVYLQMNSLKPEDTAVYYCATRYKYTGYDYWGQGTQVTVSS | high polyreactivity
4 | QVQLVESGGGLVQAGGRLRLSCAASGSIFYHYAMGWSRQAPGKERELVAAISQSGGGTYYADSVKGRFTISRDYAKNTVYLQMNSLKPEDTAVYYCAADRTGPYDYWGQGTQVTVSS | high polyreactivity
5 | QVQLVESGGGLVQAGGSLRLSCASSGSTLGVNAMGWYRQAPGKVRELVADISVRTDSTYYADSVKGRFTISRDNAKNTVYLQMNSLKPEDTAVYYCAADVPYYYPGFYSYYDDSDYWGQGTQVTVSS | low polyreactivity
6 | QVQLVESGVGLVQAGGSLRLSCAAAGYIFFFYAMGWYRQAPGKERELVASITYRGGSTYYADSVKGRFTISRDNAKNTVYLHMNSLKPEDTAVYYCNVDGGGPLGPQGFPFDYWGQGTQVTVSS | low polyreactivity
7 | QVQLVESGGGLVQAGGSLRLSCAASGRIGYNAMGWYRQAPGKERELVAAISSRGGSTYYADSVKGRFTISRDNAKNTVYLQMNSLKPEDTAVYYCNADYEARTRLGEYDYWGQGTQVTVSS | high polyreactivity
8 | QVQLVESGGGLVQAGGSLRLTCAASGLTFTYYAMGWYRQAPGKERELVAAISASGGNTYYADSVKGRFTISRDNAKNTVYLQMNSLKPEDTAVFYCAAESSIYRGYGYSGQGTQVTVSS | high polyreactivity
9 | QVQLVESGGGLVQAGGSLRLSCAATGITLYGYFMGWYRQAPGKERELVAAISRSGGSTYYADSVMGRFTISRDNAKNTVYLQMNSLKPEDTAVYYCAKVPRYYYDSEFDYWGQGTQVTVSS | high polyreactivity
10 | QVQLVESCGGLVQAGGSLPLSCAASGFTFYYYTMGWYRQAPGKERELVAVITGGGGSTYYADSVKGRFTISRDNAKNTVYLQMNSLKPEDTAVYYCAAKFYGWYRERGYDYWGQGTQVTVSS | high polyreactivity
11 | QVQLVESGGCLVQAGGRLRLSCAASVRTFRSYAMGWYRQAPGKERELVAAISWSGGSTYYADSVKGRFTISRDNAKNTVYLQMTSLKPEDTAGYYCAAEVYYTYVYILDYWGQGTQVTVSS | high polyreactivity
12 | QVQLVESGGGLVQAGGRLRLSCAASGFIFSYYAMGWYRQAPGKERELVAAINYSGGRTYYADSVKGRFTISRDNAKNTVYLQMNSLKPEDTAVYYCNAVTFGRRAFDYWGQGTQVTVSS | high polyreactivity
13 | QVQLVESGGGLVQAGGSLRLSCAASGSTFAKYAMGWYRQAPGKERELVASIRLSGGSTYYADSVKGRFTISRDNAKNTVYLQMNSLKPEDTALYYCHKQFATFFYGFDYYYWGQGTQVTVSS | low polyreactivity
14 | QLQLVESGGGLVQAGGSLRLSCAASGSIFGGYAMGWYRQAPGKERELVAAITGTDTTNYADSVKGRFTISRDNAKNTVYLQMNSLKPEDTAVFYCNADYQPVAAVYNYDYWGQGTQVTVSS | low polyreactivity
15 | QVQLVESGGGLVQAGGSLRLSCAASGSTSPRNAMGWYRQAPGKERELVAAISSGGRTNYADSVKGRFTISRDNAKNTVYLQMNSLKPEDTAVYYCAAEVQSTYWGQGTQVTVSS | low polyreactivity
16 | QVQLVESGGGLVQAGGSLRLSCAASGSTFDVYAMGWYRQAPGKERELVAAIRSSGGSTFYADSVKGRFTISRDNAKNIVYLQMISLNPEDTAVYYCAARSFVVSGYNKYYEYGYWGQGTHVTVSS | low polyreactivity
17 | QVQLVESGGGLVQAGGSLRLSCAASGAMGWYRQAPGKERELVAGITSGGSTNYADSVKGRFTISRDNAKNTVYLQMNSLKPEDTAVYDCNAVGGPRWLSVGWPYDYWGQGTQVTVSS | low polyreactivity

Source: the nanobody polyreactivity screen of Harvey et al. (2022)
